# Measured values taken from patent US9969998B2, “Compositions of adenosine deaminase-2 (ADA2), variants thereof and methods of using same” (Halozyme, Inc., priority 2014, dated 2018).
# Where a chain is given by its changes, count along the chain named. Names may count otherwise.
# B1: K455D: ADA2 variant SEQ ID NO:26 (protein)
# chain: IDETRAHLLLKEKMMRLGGRLVLNTKEELANERLMTLKIAEMKEAMRTLIFPPSMHFFQAKHLIERSQVFNILRMMPKGAALHLHDIGIVTMDWLVRNVTYRPHCHICFTPRGIMQFRFAHPTPRPSEKCSKWILLEDYRKRVQNVTEFDDSLLRNFTLVTQHPEVIYTNQNVVWSKFETIFFTISGLIHYAPVFRDYVFRSMQEFYEDNVLYMEIRARLLPVYELSGEHHDEEWSVKTYQEVAQKFVETHPEFIGIKIIYSDHRSKDVAVIAESIRMAMGLRIKFPTVVAGFDLVGHEDTGHSLHDYKEALMIPAKDGVKLPYFFHAGETDWQGTSIDRNILDALMLNTTRIGHGFALSKHPAVRTYSWKKDIPIEVCPISNQVLKLVSDLRNHPVATLMATGHPMVISSDDPAMFGAKGLSYDFYEVFMGIGGMKADLRTLKQLAMNSIDYSTLLESEKNTFMEIWKKRWDKFIADVATK
# modifications: human ADA2 K452D, mature numbering
# B2: E182A: ADA2 variant SEQ ID NO:46 (protein)
# chain: B1 chain with E179A, D452K
# modifications: human ADA2 E179A, mature numbering
# B3: K455A: ADA2 variant SEQ ID NO:25 (protein)
# chain: B1 chain with D452A
# modifications: human ADA2 K452A, mature numbering
# B4: R222N: ADA2 variant SEQ ID NO:40 (protein)
# chain: B1 chain with R219N, D452K
# modifications: human ADA2 R219N, mature numbering
# B5: E182V: ADA2 variant SEQ ID NO:49 (protein)
# chain: B1 chain with E179V, D452K
# modifications: human ADA2 E179V, mature numbering
# B6: K14A: ADA2 variant SEQ ID NO:13 (protein)
# chain: B1 chain with K11A, D452K
# modifications: human ADA2 K11A, mature numbering
# B7: E182S: ADA2 variant SEQ ID NO:47 (protein)
# chain: B1 chain with E179S, D452K
# modifications: human ADA2 E179S, mature numbering
# B8: L224G: ADA2 variant SEQ ID NO:44 (protein)
# chain: B1 chain with L221G, D452K
# modifications: human ADA2 L221G, mature numbering
# B9: E182D: ADA2 variant SEQ ID NO:45 (protein)
# chain: B1 chain with E179D, D452K
# modifications: human ADA2 E179D, mature numbering
# B10: H267G: ADA2 variant SEQ ID NO:37 (protein)
# chain: B1 chain with H264G, D452K
# modifications: human ADA2 H264G, mature numbering
# B11: K16E: ADA2 variant SEQ ID NO:18 (protein)
# chain: B1 chain with K13E, D452K
# modifications: human ADA2 K13E, mature numbering
# B12: K16D: ADA2 variant SEQ ID NO:17 (protein)
# chain: B1 chain with K13D, D452K
# modifications: human ADA2 K13D, mature numbering
# B13: R222K: ADA2 variant SEQ ID NO:38 (protein)
# chain: B1 chain with R219K, D452K
# modifications: human ADA2 R219K, mature numbering
# B14: K14D: ADA2 variant SEQ ID NO:14 (protein)
# chain: B1 chain with K11D, D452K
# modifications: human ADA2 K11D, mature numbering
# B15: E182G: ADA2 variant SEQ ID NO:50 (protein)
# chain: B1 chain with E179G, D452K
# modifications: human ADA2 E179G, mature numbering
# B16: L224V: ADA2 variant SEQ ID NO:43 (protein)
# chain: B1 chain with L221V, D452K
# modifications: human ADA2 L221V, mature numbering
# B17: E182T: ADA2 variant SEQ ID NO:48 (protein)
# chain: B1 chain with E179T, D452K
# modifications: human ADA2 E179T, mature numbering
# B18: R222A: ADA2 variant SEQ ID NO:41 (protein)
# chain: B1 chain with R219A, D452K
# modifications: human ADA2 R219A, mature numbering
# B19: L224A: ADA2 variant SEQ ID NO:42 (protein)
# chain: B1 chain with L221A, D452K
# modifications: human ADA2 L221A, mature numbering
# B20: K16A: ADA2 variant SEQ ID NO:16 (protein)
# chain: B1 chain with K13A, D452K
# modifications: human ADA2 K13A, mature numbering
# B21: H267N: ADA2 variant SEQ ID NO:36 (protein)
# chain: B1 chain with H264N, D452K
# modifications: human ADA2 H264N, mature numbering
# Experiment: Adenosine deaminase (ADA) enzymatic activity assay kit
# Assay type: biochemical
# Conditions: for adenosine deaminase activity mU/mL / ΔA/min, adenosine deaminase activity: protein diluted to 5 μg/mL, serially diluted 2 fold (Table 21); for % activity vs. WT: relative to rHuADA2 WT (Table 21); for Adenosine deaminase activity mU/ml / Adenosine deaminase activity ΔA/min / % of WT activity: purified protein at 5 μg/mL; for % of WT activity: compared to WT-ADA2
# Method: Adenosine deaminase activity was determined using an adenosine deaminase (ADA) assay kit (Genway, San Diego, Calif.; Cat. No. BQ014EALD) with minor modifications. The ADA assay is based on the enzymatic deamination of adenosine to inosine, which is converted to hypoxanthine by purine nucleoside phosphorylase (PNP). Hypoxanthine is then converted to uric acid and hydrogen peroxide by xanthine oxidase (XOD). Hydrogen peroxide is further reacted with N-Ethyl-N-(2-hydroxy-3-sulfopropyl)-3-methylaniline (EHSPT) and 4-aminoantipyrine (4-AA) in the presence of peroxidase (POD) to generate quinone dye, which is monitored in a kinetic manner.
# Briefly, 5 μL samples in duplicates (at appropriate dilutions to measure steady-state, non-saturating enzyme activity) were added to 120 μL R1 reagent (provided by the manufacturer; 50 mM Tris HCL, pH 8.0, 2 mM 4-AA, 0.1 U/mL PNP, 0.2 U/mL XOD, 0.6 U/mL peroxidase) in a 96 well plate, according to manufacturer's instructions. The mixtures were incubated at 37° C. for approximately 5 min and 60 μL of R2 reagent (provided by the manufacturer; 50 mM Tris HCl, pH 4.0, 10 mM Adenosine, 2 mM EHSPT) was added to the mixtures. Then, change in absorbance (AA) at 556 nm over time at 37° C. was measured. One unit of ADA is the amount of ADA that generates one μmole of inosine from adenosine per minute at 37° C. Adenosine deaminase activity in mU/mL was calculated using the following formula: 1 mU/mL=(ΔA/min×Tv)/(Sv×ϵ×1) • where Tv=total volume (185 μL), Sv=sample volume (5 μL), ϵ=32.2×10^−3 μM^−1 cm^−1, 1=0.5 cm.
# Adenosine deaminase activity of WT rHuADA2 and variants tested above were determined using the adenosine deaminase activity (ADA) assay described in Example 4. Activity was assessed on purified rHuADA2 WT and variants that were diluted to 5 μg/mL, and then serially diluted 2 fold to generate 4 measurements.
# Adenosine deaminase activity of PEGylated rHuADA2 and variants was assessed using the method described in Example 4, and compared to the activity of the corresponding non-PEGylated form.
# Selected candidate variants described in Table 8 above, containing an amino acid substitution in a residue that play a role in enzymatic activity, were assessed for their adenosine deaminase activity using the method described in Example 4. To perform the experiments, purified WT rHuADA2 and tested variants were prepared at 5 μg/mL concentration to normalize the amount of protein in each experiment.
molecule,measurement,value
B1,enzymatic activity relative to WT rHuADA2,improved enzymatic activity
same,adenosine deaminase activity mU/mL,97.9 mU/mL
same,"ΔA/min, adenosine deaminase activity",42.6
same,% activity vs. WT,125.5%
B2,Adenosine deaminase activity mU/ml,8.6 mU/ml
same,Adenosine deaminase activity ΔA/min,3.7 ΔA/min
same,% of WT activity,11%
B3,adenosine deaminase activity mU/mL,14 mU/mL
same,"ΔA/min, adenosine deaminase activity",6.1
same,% activity vs. WT,18%
B4,Adenosine deaminase activity mU/ml,81.5 mU/ml
same,Adenosine deaminase activity ΔA/min,35.4 ΔA/min
same,% of WT activity,104%
B5,Adenosine deaminase activity mU/ml,8 mU/ml
same,Adenosine deaminase activity ΔA/min,3.5 ΔA/min
same,% of WT activity,10%
B6,adenosine deaminase activity mU/mL,11.4 mU/mL
same,"ΔA/min, adenosine deaminase activity",4.9
same,% activity vs. WT,14.6%
B7,Adenosine deaminase activity mU/ml,9.5 mU/ml
same,Adenosine deaminase activity ΔA/min,4.1 ΔA/min
same,% of WT activity,12%
B8,Adenosine deaminase activity mU/ml,88.2 mU/ml
same,Adenosine deaminase activity ΔA/min,38.3 ΔA/min
same,% of WT activity,113%
B9,Adenosine deaminase activity mU/ml,18.1 mU/ml
same,Adenosine deaminase activity ΔA/min,7.8 ΔA/min
same,% of WT activity,23%
B10,Adenosine deaminase activity mU/ml,119.1 mU/ml
same,Adenosine deaminase activity ΔA/min,51.8 ΔA/min
same,% of WT activity,153%
B11,adenosine deaminase activity mU/mL,16.3 mU/mL
same,"ΔA/min, adenosine deaminase activity",7.1
same,% activity vs. WT,20.9%
B12,adenosine deaminase activity mU/mL,67.3 mU/mL
same,"ΔA/min, adenosine deaminase activity",29.3
same,% activity vs. WT,86.3%
B13,Adenosine deaminase activity mU/ml,118.5 mU/ml
same,Adenosine deaminase activity ΔA/min,51.5 ΔA/min
same,% of WT activity,152%
B14,adenosine deaminase activity mU/mL,18.7 mU/mL
same,"ΔA/min, adenosine deaminase activity",8.1
same,% activity vs. WT,24%
B15,Adenosine deaminase activity mU/ml,6.9 mU/ml
same,Adenosine deaminase activity ΔA/min,3 ΔA/min
same,% of WT activity,9%
B16,Adenosine deaminase activity mU/ml,96.1 mU/ml
same,Adenosine deaminase activity ΔA/min,41.8 ΔA/min
same,% of WT activity,123%
B17,Adenosine deaminase activity mU/ml,6.2 mU/ml
same,Adenosine deaminase activity ΔA/min,2.7 ΔA/min
same,% of WT activity,8%
B18,Adenosine deaminase activity mU/ml,31.2 mU/ml
same,Adenosine deaminase activity ΔA/min,13.6 ΔA/min
same,% of WT activity,40%
B19,Adenosine deaminase activity mU/ml,100.1 mU/ml
same,Adenosine deaminase activity ΔA/min,43.5 ΔA/min
same,% of WT activity,128%
B20,adenosine deaminase activity mU/mL,28 mU/mL
same,"ΔA/min, adenosine deaminase activity",12.2
same,% activity vs. WT,35.9%
B21,Adenosine deaminase activity mU/ml,50.4 mU/ml
same,Adenosine deaminase activity ΔA/min,21.9 ΔA/min
same,% of WT activity,65%
